The results in this text go back to patent US20200332017A1 (SALUBRIS CHENGDU BIOTECH, published 2020).

Test [1] deals with T1, human CD40-Fc protein (amino acid residue 21-193 of SEQ ID NO: 67 linked to N-terminus of amino acid residue … (human, biotin-labeled in the capture ELISA and in the benchmark blocking ELISA; unlabeled when coated in the ligand blocking ELISA).
T1 construct: also called biotin-labeled human CD40-Fc; human CD40-Fc-biotin
The test can be described thus: competitive ELISA; coated human CD40-Fc, competitor biotin human CD40L-his. Here is the method:
(§1) Serially diluted the mouse anti-CD40 antibodies of the present invention or the controls (starting at 200 nM with a four-fold serial dilution) in 2.5% w/v non-fatty milk in PBST were prepared to the plates and incubated with the human CD40-Fc proteins at room temperature for 40 minutes. […] Plates were washed again. 100 μl/well of streptavidin conjugated HRP was added and incubated for 40 minutes at 37° C. Plates were washed again using wash buffer. Finally, TMB was added and the reaction was stopped using 1M H₂SO₄, and the absorbance was read at 450 nm. Data were analyzed using Graphpad Prism software and IC₅₀ values were reported.

The target of test [2] is T1, human CD40-Fc protein (amino acid …). Briefly: ligand blocking ELISA: human CD40-Fc coated, antibody titrated, then biotin-labeled human CD40L-his (blocked ligand), streptavidin-HRP, OD(450-630). Here is the method: as §1
For test [3], the target named is T2, Human CD40-his protein (Acro biosystems, Cat # CD0-H5228) (human, UniProt P25942 21-193).
T2 construct: Bought reagent; not shown: his tag
Briefly: SPR, Biacore; antibody captured, human CD40-his flowed. The text has this: (§2) Briefly, goat anti-mouse IgG (GE healthcare, Cat # BR100838, Mouse Antibody Capture Kit) was covalently linked to a CM5 or a Protein G chip (carboxy methyl dextran coated chip) via primary amines, using a standard amine coupling kit provided by Biacore (GE healthcare, Pittsburgh, Pa., USA). Un-reacted moieties on the biosensor surface were blocked with ethanolamine. […] Then, human CD40-his (Acro biosystems, Cat # CD0-H5228) or cynomolgus monkey CD40-his protein (Acro biosystems, Cat # CD0-052H6) in HBS EP buffer (provided by Biacore) was flowed onto the chip at a flow rate of 30 μL/min. The antigen-antibody association kinetics was followed for 2 minutes and the dissociation kinetics was followed for 10 minutes. The association and dissociation curves were fit to a 1:1 Langmuir binding model using BIA evaluation software.

Test [4] has as its target T2, Human CD40-his protein (Acro …). The test can be described thus: SPR, Biacore; human CD40-his.
Text: as §2

The target in test [5] is T3, full length human CD40 (uniprot # P25942-1) on the membrane of 293T-CD40 cells (human, UniProt P25942 21-277).
T3 construct: also called cell surface CD40
The test can be described thus: flow cytometry on 293T-CD40 cells. Here is the method: 2×10⁵ cells per well in 96 well-plates were incubated with the mouse anti-CD40 antibodies or the controls of various concentrations in FACS buffer for 40 minutes on ice. […] Following an incubation of 40 minutes at 4° C. in dark, cells were washed three times and resuspended in FACS buffer. Fluorescence was measured using a Becton Dickinson FACS Canto II-HTS equipment and plotted against antibody concentration.

Test [6] concerns the target T3, full length human CD40 (uniprot # …). Briefly: cell-based or functional assay.
Test [7] deals with T1, human CD40-Fc protein (amino acid …). Briefly: benchmark blocking ELISA: BM2 (Selicrelumab) coated as competitor, antibody titrated in biotin-labeled human CD40-Fc solution, streptavidin-HRP, OD(450-630). Here is the method:
(§3) The ability of the mouse anti-CD40 antibodies of the present invention to block the binding of the Benchmark to human CD40 was measured using a competitive ELISA assay. […] The next day, plates were washed with wash buffer, and blocked with 5% w/v non-fatty milk in PBST for 2 hours at 37° C. Plates were then washed again using wash buffer. […] After incubation at 37° C. for 40 minutes, plates were washed 4 times using wash buffer. Then streptavidin conjugated HRP was added and incubated for 40 minutes at 37° C. to detect biotin-labeled human CD40-Fc bound to plates. Plates were washed again using wash buffer. Finally, TMB was added and the reaction was stopped using 1M H₂SO₄, and the absorbance was read at 450 nm. Data were analyzed using Graphpad Prism software and IC₅₀ values were reported.

For test [8] the target is unchanged. Briefly: capture ELISA (antibody captured on coated goat anti-human IgG F(ab')2, biotin-labeled human CD40-Fc in solution, streptavidin-HRP, OD(450-630)).
Test [9] has the same target. Briefly: capture ELISA; antibody captured, biotin-labeled human CD40-Fc in solution. How it is done: Plates were washed 4 times with wash buffer (PBS+0.05% Tween-20, PBST) and then blocked with 200 μl/well blocking buffer (5% w/v non-fatty milk in PBST) for 2 hours at 37° C. […] After a final wash, plates were incubated with 100 μl/well ELISA substrate TMB (Innoreagents, Cat # TMB-S-002). The reaction was stopped in 15 minutes at 25° C. with 50 μl/well 1M H₂SO₄, and the absorbance was read at 450 nm and plotted against antibody concentration. Data were analyzed using Graphpad Prism software and EC₅₀ values were reported.

Test [10] concerns the target T4, cynomolgus monkey CD40-his protein (Acro biosystems, Cat # CD0-052H6) (cynomolgus monkey, UniProt G7PG38 21-193).
T4 construct: Bought reagent; also called Cynomolgus CD40-his
The test can be described thus: SPR, Biacore; cynomolgus CD40-his.
Text: as §2

For test [11], the target named is T1, human CD40-Fc protein (amino acid …). The test can be described thus: competitive ELISA; biotin human CD40-Fc in solution, competitor coated BM2. Here is the method:
as §3

Test [12] deals with T3, full length human CD40 (uniprot # …). The test can be described thus: flow cytometry on 293T-CD40 cells, PE goat anti-human IgG Fc-gamma secondary antibody, MFI. Here is the method:
Following an incubation of 40 minutes at 4° C. in dark, cells were washed three times and resuspended in FACS buffer. Fluorescence was measured using a Becton Dickinson FACS Canto II-HTS equipment and plotted against antibody concentration.

B1: humanized antibody huC1C1-V7 (antibody, human IgG1, kappa, V domains shown)
VH: EVQLVESGGGVVQPGRSLRLSCAASGFTFSNYGMSWVRQAPGKGLEWVASISSGGDDTYYPDNVKGRFTISRDNSKNTLYLQMNSLRAEDTAVYYCTRAGGKAMDYWGQGTLVTVSS
VL: EIVLTQSPATLSLSPGERATLSCRASQSIRDNLHWYQQKPGQAPRLLIYYASQSISGIPARFSGSGSGTDFTLTISSLEPEDFAVYYCQQFNSWPLTFGQGTKVEIKR
notes: Human IgG1/kappa; also called humanized C1C1-V7
Take B1: the figures for the half-inhibitory concentration (IC50) in [1] and in [11] were 3 nM and 0.111 nM, respectively. The “IC50 (read off the curve)” value is approximately 0.5 µg/mL in [2] and approximately 0.02 µg/mL in test [7]. The Kd was determined as 11.9 nM in test [3], 11.3 nM in test [4] and 4.04 nM in [10]. This molecule came in with a koff in test [3] of 0.00968 s⁻¹. Besides, the kon in test [3] stood at 814000 M⁻¹ s⁻¹. Also, the values for the EC50 in test [5] and in [9] were 1.85 nM and 0.248 nM, respectively. In [6], the “cell based functional assay (EC50, nM)” value is 4.25 nM. Moreover, the entries for the “EC50 (read off the curve)” value in [8] and in [12] were approximately 0.04 µg/mL and approximately 0.3 µg/mL, respectively.
